“And” between values parts separate entries of the source, which are not always exact repeats. Identical values can stand only once.
Assays:
[1] = system: acidic tissues, tumors; test: In vivo fluorescence imaging of tissue and tumor targeting; set-up: species or system mice and rats
Text: The pH-dependent interaction of pHLIP with membranes allows selectivity in the targeting of acidic (less than pH 7.0) diseased tissue. As noted above, acidity and hypoxia are considered as universal cancer biomarkers, and pHLIP is used as an acidity-targeting probe. Besides cancer, many other pathological states, such as inflammation, ischemia, stroke, arthritis and others are characterized by acidity in the extracellular space, which may broaden the potential applications of pHLIP. […] In addition to fluorescence imaging, PET (positron emission tomography) imaging of the acidic environment in human prostate tumors was performed using ^64Cu-DOTA conjugated to pHLIP. […] To manipulate the acidity of tissues, a buffer solution is administered to the subject systemically or local to the area in which a pH change is desired. In this manner, pHLIP-liposome-mediated delivery of a cargo compound is regulated, e.g., reduced or stopped. For example, administering bicarbonated water, which increases tissue pH, results in a reduction of tumor targeting by pHLIP.
The transmembrane (TM) part of exemplary pHLIP peptides contain two Asp residues. […] The replacement of the key Asp residues by Lys, Ala or Asn leads to the loss of peptide of pH-dependent membrane insertion, as measured in liposomes, red blood cells and confirmed by in vivo fluorescence imaging. […]

[2] = pH-dependent membrane insertion of pHLIP peptides; assay type: physicochemical
Text: Peptide folding and membrane insertion are driven by a drop of pH from neutral or high (>7.4) to slightly acidic (7.0-6.5 and less) pHs. […] In contrast, all pore forming peptides first form aggregates on the membrane surface and then “fall” into membrane and form pores.
The transmembrane (TM) part of exemplary pHLIP peptides contain two Asp residues. At neutral pH these charged residues enhance peptide solubility and serve as anchors keeping the peptide at the surface of membrane, thereby preventing pHLIP partitioning into the hydrophobic membrane bilayer. A reduction of pH induces protonation of Asp residues, and as a result, the overall hydrophobicity of the peptide increases, enhancing the affinity of the peptide for the lipid bilayer core and triggering peptide folding and insertion. The replacement of the key Asp residues by Lys, Ala or Asn leads to the loss of peptide of pH-dependent membrane insertion, as measured in liposomes, red blood cells and confirmed by in vivo fluorescence imaging. […] The Ala substitutions yield a peptide that aggregates in solution (but de-aggregates when it becomes diluted in bodily fluids or tissue upon administration to a subject), while the Lys and Asn substitutions give peptides that are too polar to insert either at neutral or low pH. […]

[3] = system: liposomes and cellular membranes; assay type: cell-based
Text: Toxicity is one of the most critical issues in the selection of any delivery agent. For example, the use of pore-forming membrane peptides as delivery agents is complicated by the toxicity associated with the formation of pores in cellular membranes in vivo.

[4] = Oligomeric state and aggregation of pHLIP in solution and on membranes; assay type: physicochemical
Experimental: Poor solubility due to aggregation is a typical property of membrane peptides, which has complicated studies and applications. Isolated or purified pHLIP, as any membrane peptide, also has a tendency to aggregate, especially at high concentrations and/or low pH. However, in aqueous solution at neutral pH pHLIP exists as a monomer at concentrations less than 30 μg/mL (˜7.0 μM), as studied by fluorescence and CD spectroscopy measurements, size exclusion chromatography coupled with “on-line” laser light scattering, ultraviolet and refractive index detection (SEC-LS/UV/RI) and analytical ultracentrifugation experiments. When the solubility of the peptide is compromised as a result of mutations, the affinity of the peptide for a membrane and its overall conformational properties change. Thus, studies were undertaken to design pHLIP peptides that are optimized for clinical diagnostic and therapeutic use.
The oligomeric state of the peptide on the surface of a membrane (state II) and inserted into the lipid bilayer (state III) were evaluated by FRET performed with two different donor-acceptor probes attached to the N-terminus of the peptide.

[5] = in vivo
Text: If the peptide sequence were made more hydrophobic, tighter binding to red blood cells and epithelial cells and more aggregation in solution, and slower clearance and reduced bioavailability would occur. Making the peptide less hydrophobic accelerates clearance and prevents the peptide from finding its targets. Therefore, fine tuning of the solubility is an important property to optimize pHLIP performance in vivo.

Substance | targeting of acidic tissue and tumors [1] | apparent pK of insertion [2] | cellular toxicity [3] | membrane leakage [3] | oligomeric state in states I, II and III [4] | concentration at which pHLIP exists as a monomer ([4]; aqueous solution at neutral pH) | circulation in the blood [5]
K-pHLIP (ACEQNPIYWARYAKWLFTTPLLLLKLALLVDADEGTG; pHLIP variant) | does not demonstrate tumor targeting | – | – | – | – | – | –
pHLIP: water-soluble polypeptide based on the bacteriorhodopsin C helix, e.g. SEQ ID NO: 4 (ACEQNPIYWARYADWLFTTPLLLLDLALLVDADET; pHLIP variant) | can target acidic tissues | 6.0 | no cellular toxicity | does not lead to membrane leakage | monomer | less than 30 μg/mL and ~7.0 μM | several hours

Reference: patent US11857509B2, “Liposome compositions and methods of use thereof” (University of Rhode Island Board of Trustees, priority 2010, dated 2024)
